Biological target: His-SYMREM1 (Medicago truncatula)
Assay: SEC; analytical gel filtration of fresh recombinant His-SYMREM1, calibrated with standard proteins; apparent molecular weight compared with the calculated size of a dimer

His-SYMREM1 (natural protein) showed a stoichiometry N of 2.
